Experimental findings from paper PMC5667739 (PLoS Pathogens, 2017) are described below.

Common to all, as to conditions: both partners purified
Assay [1] addresses T1, GII.10 P domain (Vietnam026) (norovirus GII.10 (Vietnam026)).
T1 construct: source: E. coli, purified
Put plainly: ITC. Background: In ITC the heat of successive injections is recorded.

Assay [2] addresses T1, GII.10 P domain (Vietnam026). Briefly: ELISA.
Assay [3] shares this target. Briefly: ITC. This is another data set of the same source.

B1: Nano-26 (VHH)
VHH: QVQLQESGGGLVQPGGSLRLSCTAPRIIFFMYDVGWYRQAPEKQRELVAQINSDVSTKYADSVKGRFTISRDNAKRTVYLQMNDLKPEDAAVYYCNVRRASADYWGQGTQVTVSS
notes: also called N26; source: E. coli WK6 (pHEN6C vector), purified
As usually defined, the Kd is the constant that tells how readily two partners part at equilibrium. Lower therefore signals a tighter complex. On to B1, for which, in assay [1], the “stoichiometry N” value was 1 Nanobody per P domain monomer. The “lowest Nanobody concentration that detected the antigen (direct ELISA)” value in assay [2] worked out at 20 ng/mL. Also, in assay [3], the affinity, expressed as Kd, was 3.2 nM and the dH was -10 kcal/mol.

B2: Nano-4 (VHH)
VHH: QVQLQESGGGLVQPGGSLRLFCAASGFTFSSYAMRWYRQAPGKERELVAAITSAGGSTHYADSVKERFTISRDNAKNTMYLQMNSLKPEDTAVYYCNARRDYGDSWFTAGGGYWGQGTQVTVSS
B2: the “stoichiometry N” value in assay [1] is 1 Nanobody per P domain monomer. The “lowest Nanobody concentration that detected the antigen (direct ELISA)” value in assay [2] amounted to 20 ng/mL. Besides, in assay [3], the affinity, expressed as Kd, was 35 nM and the dH was -12 kcal/mol.

B3: Nano-42 (VHH)
VHH: QVQLQESGGGLVQPGGSLRLSCAASGSVSRTYVMGWYRQTPGNQRELVATITSVGSTNYADSLKGRFTISRENAENTVYLQMNSLKPEDTAIYYCKYIRYSPIHAPLDYWGQGTQVTVSS
As to B3, the “stoichiometry N” value in assay [1] was 1 Nanobody per P domain monomer. Also, in assay [2], the “lowest Nanobody concentration that detected the antigen (direct ELISA)” value worked out at 20 ng/mL. In addition, in assay [3], the Kd was determined as 0.809 nM and the dH was -9.84 kcal/mol.

B4: Nano-32 (VHH)
VHH: QVQLQESGGGLVQPGGSLRLSCAASGFTLGYYPIGWFRQAPGKGLEGVSCISGSGGSANYAASVKGRFTISRDNAKNTVYLQMNSLKPEDTAIYYCAADLSSLTTVQAMCVIPRPGFSAKAYDYWGLGTQVTVSS
B4: in assay [1], the “stoichiometry N” value is 1 Nanobody per P domain monomer. Besides, in assay [3], binding was put at a Kd of 60 nM and the dH was found to be 5 kcal/mol.

B5: Nano-27 (VHH)
VHH: QVQLQESGGGLVQPGGSLRLSCAASGTIFSRNIMGWYRQAPGKERELVASIYSDRSTWYAESVEGRFTISRDNVKNTLYLQMNSLKPEDTAMYYCRDRTLGSWGQGTQVTVSS
For the molecule B5, the “stoichiometry N” value in assay [1] is 1 Nanobody per P domain monomer. Further, in assay [3], binding was characterised by a dissociation constant (Kd) of 9.5 nM and the dH was -8.1 kcal/mol.

B6: Nano-14 (VHH)
VHH: QVQLQESGGGLVQSGGSLRLSCAASRNINSMHVVGWYRQAPGNQRELVASITDDGSTDYVDSVKGRFTISRDIAENTVYLQMNSLNPEDTAVYYCKGTIVVFTTPMHYWGKGTQVTVSS
notes: also called N14; source: E. coli WK6 (pHEN6C vector), purified
Take B6: the “stoichiometry N” value in assay [1] was 0.5 Nanobody per P domain monomer. For the same molecule, the “lowest Nanobody concentration that detected the antigen (direct ELISA)” value in assay [2] came out at 20 ng/mL. In assay [3], the Kd turned out to be 10.4 nM and the dH was -22 kcal/mol.
